Values of other authors as cited in paper PMC3000440.

Assays:
EGFR (Homo sapiens) = EGFR (Homo sapiens) (UniProt P00533)
IGF-I (Homo sapiens) = IGF-I (Homo sapiens) (UniProt P05019)
IGF-IR (Homo sapiens) = IGF-IR (Homo sapiens) (UniProt P08069)
Met (Homo sapiens) = Met (Homo sapiens) (UniProt P08581)
Chain of UniProt P08581 (P08581 25-932): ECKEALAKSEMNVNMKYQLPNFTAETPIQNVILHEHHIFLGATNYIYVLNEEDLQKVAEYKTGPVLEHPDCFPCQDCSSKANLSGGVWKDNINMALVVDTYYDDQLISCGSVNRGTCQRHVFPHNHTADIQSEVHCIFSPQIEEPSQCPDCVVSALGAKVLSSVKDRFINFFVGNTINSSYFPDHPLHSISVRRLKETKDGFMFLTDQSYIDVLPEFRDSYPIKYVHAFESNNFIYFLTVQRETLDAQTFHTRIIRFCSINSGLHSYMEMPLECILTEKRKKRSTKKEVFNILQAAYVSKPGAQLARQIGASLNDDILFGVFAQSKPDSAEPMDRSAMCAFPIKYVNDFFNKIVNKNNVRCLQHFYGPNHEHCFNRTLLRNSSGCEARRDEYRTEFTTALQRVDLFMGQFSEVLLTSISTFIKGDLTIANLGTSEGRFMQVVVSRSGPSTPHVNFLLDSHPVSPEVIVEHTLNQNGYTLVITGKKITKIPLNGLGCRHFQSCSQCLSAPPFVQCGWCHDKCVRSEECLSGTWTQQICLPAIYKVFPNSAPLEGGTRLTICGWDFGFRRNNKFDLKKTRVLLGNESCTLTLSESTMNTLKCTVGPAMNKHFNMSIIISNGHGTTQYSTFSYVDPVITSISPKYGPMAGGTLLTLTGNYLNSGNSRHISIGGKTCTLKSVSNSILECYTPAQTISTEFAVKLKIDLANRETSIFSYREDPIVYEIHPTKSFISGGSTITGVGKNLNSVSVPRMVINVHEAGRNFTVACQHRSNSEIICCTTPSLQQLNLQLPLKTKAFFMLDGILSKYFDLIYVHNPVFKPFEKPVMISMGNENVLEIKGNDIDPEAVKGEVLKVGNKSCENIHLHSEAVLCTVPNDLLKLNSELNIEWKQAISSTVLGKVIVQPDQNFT

Chain of UniProt P05019 (P05019 49-118): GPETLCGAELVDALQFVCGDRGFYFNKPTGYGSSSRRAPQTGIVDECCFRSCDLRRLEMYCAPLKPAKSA
Chain of UniProt P08069 (P08069 31-736, chain 1 of 2): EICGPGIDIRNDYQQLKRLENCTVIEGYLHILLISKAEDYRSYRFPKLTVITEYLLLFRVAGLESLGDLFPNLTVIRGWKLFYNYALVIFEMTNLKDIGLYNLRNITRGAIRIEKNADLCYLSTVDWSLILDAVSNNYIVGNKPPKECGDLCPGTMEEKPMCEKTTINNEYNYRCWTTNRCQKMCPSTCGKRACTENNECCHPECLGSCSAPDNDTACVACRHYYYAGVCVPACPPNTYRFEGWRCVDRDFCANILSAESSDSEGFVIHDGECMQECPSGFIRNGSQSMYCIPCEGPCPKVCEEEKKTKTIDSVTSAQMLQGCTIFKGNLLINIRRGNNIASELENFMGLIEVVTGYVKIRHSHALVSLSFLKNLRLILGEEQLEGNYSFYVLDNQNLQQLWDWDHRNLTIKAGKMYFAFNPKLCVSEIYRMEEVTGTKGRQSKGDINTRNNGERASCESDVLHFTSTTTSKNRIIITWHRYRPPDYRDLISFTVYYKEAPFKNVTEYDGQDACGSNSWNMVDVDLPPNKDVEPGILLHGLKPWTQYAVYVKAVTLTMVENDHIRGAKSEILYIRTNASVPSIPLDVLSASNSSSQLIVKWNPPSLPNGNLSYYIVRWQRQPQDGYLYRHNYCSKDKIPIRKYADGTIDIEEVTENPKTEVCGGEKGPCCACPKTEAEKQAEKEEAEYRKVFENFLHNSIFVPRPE
Chain of UniProt P08069 (P08069 741-935, chain 2 of 2): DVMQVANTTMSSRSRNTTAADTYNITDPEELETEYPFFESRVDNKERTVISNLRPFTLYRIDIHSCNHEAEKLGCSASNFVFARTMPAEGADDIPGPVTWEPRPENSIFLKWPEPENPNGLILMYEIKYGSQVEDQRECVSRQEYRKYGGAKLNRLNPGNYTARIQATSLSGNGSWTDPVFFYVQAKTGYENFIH

decorin (from UniProt P07585)
Kd (EGFR (Homo sapiens)): 87 nM
Kd (IGF-I (Homo sapiens)): 18 nM
Kd (IGF-IR (Homo sapiens)): 1.5 nM
Kd (Met (Homo sapiens)): 1.5 nM
